# In patent US20110280873A1:
# Read-outs that look alike come from different tables or passages of the source.
# Tests used:
# Experiment in all cases: cell-based or functional assay
# [1] = target: CCR2 (the MCP1 receptor) on THP-1 human monocytic cells (human) (UniProt P41597)
# [2] = target: CCR2 (the MCP1 receptor) on THP-1 human monocytic cells (human) (UniProt P41597); remark: listed apart in the source
# [3] = target: CCR2 (the MCP1 receptor) on THP-1 human monocytic cells (human) (UniProt P41597); remark: listed apart in the source
# [4] = target: CCR2 (the MCP1 receptor) on THP-1 human monocytic cells (human) (UniProt P41597); remark: listed apart in the source
# Sequence of UniProt P41597 (P41597 whole entry): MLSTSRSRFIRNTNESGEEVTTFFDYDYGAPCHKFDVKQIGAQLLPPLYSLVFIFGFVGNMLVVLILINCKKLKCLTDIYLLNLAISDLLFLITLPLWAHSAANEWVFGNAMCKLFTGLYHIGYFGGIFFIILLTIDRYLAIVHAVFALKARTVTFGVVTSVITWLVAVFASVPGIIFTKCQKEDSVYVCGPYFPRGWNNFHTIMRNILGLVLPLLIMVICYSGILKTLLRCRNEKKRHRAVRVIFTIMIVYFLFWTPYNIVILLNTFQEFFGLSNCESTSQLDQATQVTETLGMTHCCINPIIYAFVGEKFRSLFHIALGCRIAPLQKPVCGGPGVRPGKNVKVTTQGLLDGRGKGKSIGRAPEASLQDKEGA
substance,measurement,setting,value
"GSD (human MCP-1, glycine-serine dipeptide, wild-type human IgG1 Fc) (from UniProt P13500 24-99; P01857 99-330) (Fc fusion)","relative % of THP-1 cell migration, agonist assay, 0.03 nM",[1],22.8%
same,"relative % of THP-1 cell migration, agonist assay, 0.1 nM",[1],34.5%
same,"relative % of THP-1 cell migration, agonist assay, 0.3 nM",[1],41.9%
same,"relative % of THP-1 cell migration, agonist assay, 1 nM",[1],58.9%
same,"relative % of THP-1 cell migration, agonist assay, 3 nM",[1],53%
same,"relative % of THP-1 cell migration, agonist assay, 10 nM",[1],34.3%
same,"relative % of THP-1 cell migration, agonist assay, 30 nM",[1],23.1%
same,"EC50, agonist THP-1 cell migration",[2],0.03 to 0.3 nM
"LPD1421 (MCP1-Ig fusion: mature human MCP1, linker GGEPKSS of SEQ ID NO: 12, human IgG1 variant hinge-CH3 with D265A) (Fc fusion)","relative % of THP-1 cell migration, agonist assay, 0.01 nM",[3],27.9%
same,"relative % of THP-1 cell migration, agonist assay, 0.03 nM",[3],63.8%
same,"relative % of THP-1 cell migration, agonist assay, 0.1 nM",[3],104%
same,"relative % of THP-1 cell migration, agonist assay, 0.3 nM",[3],86.2%
same,"relative % of THP-1 cell migration, agonist assay, 1 nM",[3],59.5%
same,"relative % of THP-1 cell migration, agonist assay, 3 nM",[3],33.1%
same,"relative % of THP-1 cell migration, agonist assay, 10 nM",[3],26.4%
same,"relative % of THP-1 cell migration, antagonist assay, rhMCP-1 0 nM, LPD1421 0.01 nM",[4],11.8%
same,"relative % of THP-1 cell migration, antagonist assay, rhMCP-1 0 nM, LPD1421 0.1 nM",[4],9.55%
same,"relative % of THP-1 cell migration, antagonist assay, rhMCP-1 0 nM, LPD1421 1 nM",[4],12.6%
same,"relative % of THP-1 cell migration, antagonist assay, rhMCP-1 0.01 nM, LPD1421 0.01 nM",[4],10.6%
same,"relative % of THP-1 cell migration, antagonist assay, rhMCP-1 0.01 nM, LPD1421 0.1 nM",[4],9.42%
same,"relative % of THP-1 cell migration, antagonist assay, rhMCP-1 0.01 nM, LPD1421 1 nM",[4],8.35%
same,"relative % of THP-1 cell migration, antagonist assay, rhMCP-1 0.03 nM, LPD1421 0.01 nM",[4],12.7%
same,"relative % of THP-1 cell migration, antagonist assay, rhMCP-1 0.03 nM, LPD1421 0.1 nM",[4],10.3%
same,"relative % of THP-1 cell migration, antagonist assay, rhMCP-1 0.03 nM, LPD1421 1 nM",[4],10.7%
same,"relative % of THP-1 cell migration, antagonist assay, rhMCP-1 0.1 nM, LPD1421 0.01 nM",[4],24.3%
same,"relative % of THP-1 cell migration, antagonist assay, rhMCP-1 0.1 nM, LPD1421 0.1 nM",[4],12.1%
same,"relative % of THP-1 cell migration, antagonist assay, rhMCP-1 0.1 nM, LPD1421 1 nM",[4],7.25%
same,"relative % of THP-1 cell migration, antagonist assay, rhMCP-1 0.3 nM, LPD1421 0.01 nM",[4],41.7%
same,"relative % of THP-1 cell migration, antagonist assay, rhMCP-1 0.3 nM, LPD1421 0.1 nM",[4],15.9%
same,"relative % of THP-1 cell migration, antagonist assay, rhMCP-1 0.3 nM, LPD1421 1 nM",[4],13.5%
same,"relative % of THP-1 cell migration, antagonist assay, rhMCP-1 1 nM, LPD1421 0.01 nM",[4],61.2%
same,"relative % of THP-1 cell migration, antagonist assay, rhMCP-1 1 nM, LPD1421 0.1 nM",[4],33.7%
same,"relative % of THP-1 cell migration, antagonist assay, rhMCP-1 1 nM, LPD1421 1 nM",[4],9.44%
same,"relative % of THP-1 cell migration, antagonist assay, rhMCP-1 3 nM, LPD1421 0.01 nM",[4],44%
same,"relative % of THP-1 cell migration, antagonist assay, rhMCP-1 3 nM, LPD1421 0.1 nM",[4],39.2%
same,"relative % of THP-1 cell migration, antagonist assay, rhMCP-1 3 nM, LPD1421 1 nM",[4],9.57%
same,"relative % of THP-1 cell migration, antagonist assay, rhMCP-1 10 nM, LPD1421 0.01 nM",[4],39.2%
same,"relative % of THP-1 cell migration, antagonist assay, rhMCP-1 10 nM, LPD1421 0.1 nM",[4],37.9%
same,"relative % of THP-1 cell migration, antagonist assay, rhMCP-1 10 nM, LPD1421 1 nM",[4],16.1%
same,"EC50, agonist THP-1 cell migration",[2],0.03 nM
same,"IC50, antagonist assay of THP-1 cell migration toward rhMCP-1",[2],0.01 to 0.1 nM
same,potency in agonist cell migration relative to rhMCP-1,[2],3 fold
NGSD (human MCP-1 joined at its carboxy-terminus directly to wild-type human IgG1 Fc) (from UniProt P13500 24-99; P01857 99-330) (Fc fusion),"EC50, agonist THP-1 cell migration",[2],0.03 to 0.3 nM
same,"relative % of THP-1 cell migration, agonist assay, 0.03 nM",[2],17.7%
same,"relative % of THP-1 cell migration, agonist assay, 0.1 nM",[2],34.3%
same,"relative % of THP-1 cell migration, agonist assay, 0.3 nM",[2],35.5%
same,"relative % of THP-1 cell migration, agonist assay, 1 nM",[2],36.5%
same,"relative % of THP-1 cell migration, agonist assay, 3 nM",[2],26.7%
same,"relative % of THP-1 cell migration, agonist assay, 10 nM",[2],17.5%
same,"relative % of THP-1 cell migration, agonist assay, 30 nM",[2],20.1%
recombinant human MCP-1 (rhMCP-1) (R & D Systems) (from UniProt P13500 24-99) (ligand),"relative % of THP-1 cell migration, agonist assay, 0.03 nM",[1],28.6%
same,"relative % of THP-1 cell migration, agonist assay, 0.1 nM",[1],52.2%
same,"relative % of THP-1 cell migration, agonist assay, 0.3 nM",[1],76%
same,"relative % of THP-1 cell migration, agonist assay, 3 nM",[1],78.1%
same,"relative % of THP-1 cell migration, agonist assay, 10 nM",[1],47.5%
same,"relative % of THP-1 cell migration, agonist assay, 30 nM",[1],25.3%
same,"relative % of THP-1 cell migration, agonist assay, 0.01 nM",[3],29.2%
same,"relative % of THP-1 cell migration, agonist assay, 0.03 nM",[3],28.7%
same,"relative % of THP-1 cell migration, agonist assay, 0.1 nM",[3],59.4%
same,"relative % of THP-1 cell migration, agonist assay, 0.3 nM",[3],87.3%
same,"relative % of THP-1 cell migration, agonist assay, 3 nM",[3],78.4%
same,"relative % of THP-1 cell migration, agonist assay, 10 nM",[3],48.4%
same,"relative % of THP-1 cell migration toward rhMCP-1 0.01 nM, medium only",[4],16.2%
same,"relative % of THP-1 cell migration toward rhMCP-1 0.03 nM, medium only",[4],24.2%
same,"relative % of THP-1 cell migration toward rhMCP-1 0.1 nM, medium only",[4],34.8%
same,"relative % of THP-1 cell migration toward rhMCP-1 0.3 nM, medium only",[4],60.7%
same,"relative % of THP-1 cell migration toward rhMCP-1 3 nM, medium only",[4],82.1%
same,"relative % of THP-1 cell migration toward rhMCP-1 10 nM, medium only",[4],59.8%
same,"EC50, agonist THP-1 cell migration",[2],0.1 nM
same,"relative % of THP-1 cell migration toward rhMCP-1 0.01 nM, medium only",[2],6.44%
same,"relative % of THP-1 cell migration toward rhMCP-1 0.03 nM, medium only",[2],15%
same,"relative % of THP-1 cell migration toward rhMCP-1 0.1 nM, medium only",[2],32%
same,"relative % of THP-1 cell migration toward rhMCP-1 0.3 nM, medium only",[2],67.5%
same,"relative % of THP-1 cell migration toward rhMCP-1 1 nM, medium only",[2],100%
same,"relative % of THP-1 cell migration toward rhMCP-1 3 nM, medium only",[2],97%
same,"relative % of THP-1 cell migration toward rhMCP-1 10 nM, medium only",[2],75.5%
same,"relative % of THP-1 cell migration, agonist assay, 0.03 nM",[2],26.5%
same,"relative % of THP-1 cell migration, agonist assay, 0.1 nM",[2],46.4%
same,"relative % of THP-1 cell migration, agonist assay, 0.3 nM",[2],80.2%
same,"relative % of THP-1 cell migration, agonist assay, 1 nM",[2],100%
same,"relative % of THP-1 cell migration, agonist assay, 3 nM",[2],70.3%
same,"relative % of THP-1 cell migration, agonist assay, 10 nM",[2],32.8%
same,"relative % of THP-1 cell migration, agonist assay, 30 nM",[2],26.4%
